Experimental data as given in patent US20230265179A1 (TWIST BIOSCIENCE, published 2023).
Where a chain is given by its changes, count along the chain named.

T1: IL1RL1 over-expressed on Expi293 cells (UniProt Q01638 19-556, limits assumed)
T1 construct: whole, on cells; Target of the flow cytometry MFI ratio (over-expressing cells over parent cells); also called cytokine over-expressing Expi293 cells
T1 sequence (looked up): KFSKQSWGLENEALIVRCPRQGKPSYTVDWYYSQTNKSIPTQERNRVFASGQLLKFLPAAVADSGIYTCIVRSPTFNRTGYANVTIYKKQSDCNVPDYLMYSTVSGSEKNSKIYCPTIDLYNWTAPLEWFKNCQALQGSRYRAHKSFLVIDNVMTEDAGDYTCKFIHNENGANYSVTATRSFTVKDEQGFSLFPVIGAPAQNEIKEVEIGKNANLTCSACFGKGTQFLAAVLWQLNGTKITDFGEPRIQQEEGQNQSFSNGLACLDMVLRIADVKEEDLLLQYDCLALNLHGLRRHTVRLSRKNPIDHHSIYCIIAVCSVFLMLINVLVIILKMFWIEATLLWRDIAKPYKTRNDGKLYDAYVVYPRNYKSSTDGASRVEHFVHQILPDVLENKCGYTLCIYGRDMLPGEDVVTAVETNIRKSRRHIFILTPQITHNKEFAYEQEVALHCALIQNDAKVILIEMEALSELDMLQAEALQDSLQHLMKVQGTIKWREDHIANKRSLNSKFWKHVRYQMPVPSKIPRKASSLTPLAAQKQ

B1: IL1RL1-192 (antibody, V domains shown)
VH: EVQLLESGGGLVQPGGSLRLSCAASGFTFGNYAMAWVRQAPGKGLEWVSGITRSGSTNYRDSVKGRFTISRDNSKNTLYLQMNSLRAEDTAVYYCARDRYFRQQNAFDYWGQGTLVTVSS
VL: DIQMTQSPSSLSASVGDRVTITCQASQSISSYLAWYQQKPGKAPKLLIYGRNKRPSGVPSRFSGSGSGTDFTLTISSLQPEDFATYYCAQTGTHPTTFGQGTKVEIK
notes: IgG2
B2: IL1RL1-36 (Fc fusion, not shown: a dimerising Fc or GST)
VHH: EVQLVESGGGLVQPGGSLRLSCAASGSIYSLVAMGWFRQAPGKEREWMGVIAYDGSTYYADSVKGRFTISADNSKNTAYLQMNSLKPEDTAVYYCAAVGGATTVTASEWDWGQGTLVTVSS
notes: VHH-Fc on IgG2 Fc
B3: IL1RL1-193 (antibody, V domains shown)
VH: EVQLLESGGGLVQPGGSLRLSCAASGFTFAKYKMWWVRQAPGKGLEWVSGITRSGSTNYRDSVKGRFTISRDNSKNTLYLQMNSLRAEDTAVYYCASLSRGYWGQGTLVTVSS
VL: DIQMTQSPSSLSASVGDRVTITCKASDHIGKFLTWYQQKPGKAPKLLIYHTSRLQSGVPSRFSGSGSGTDFTLTISSLQPEDFATYYCQQGFSNPWTFGQGTKVEIK
notes: IgG2
B4: IL1RL1-85 (Fc fusion, not shown: a dimerising Fc or GST)
VHH: EVQLVESGGGLVQPGGSLRLSCAASGRTFSTAGMGWFRQAPGKEREWVASIITSGSTITPYADSVKGRFTISADNSKNTAYLQMNSLKPEDTAVYYCAVVDLLRGKLWGQGTLVTVSS
notes: VHH-Fc on IgG2 Fc
B5: IL1RL1-239 (antibody, V domains shown)
VH: EVQLLESGGGLVQPGGSLRLSCAASGFTFRRYVMGWVRQAPGKGLEWVSSISGSSGTTYYADSVKGRFTISRDNSKNTLYLQMNSLRAEDTAVYYCAKAYYGGFDYWGQGTLVTVSS
VL: DIQMTQSPSSLSASVGDRVTITCSASSSVSSSYLHWYQQKPGKAPKLLIYRKSNRPSGVPSRFSGSGSGTDFTLTISSLQPEDFATYYCQQSYSTPTFGQGTKVEIK
notes: IgG2
B6: IL1RL1-32 (Fc fusion, not shown: a dimerising Fc or GST)
VHH: EVQLVESGGGLVQPGGSLRLSCAASGFTLGDYVMGWFRQAPGKEREFVAVIYTSDGSTYYADSVKGRFTISADNSKNTAYLQMNSLKPEDTAVYYCVVSFSTRGPYWGQGTLVTVSS
notes: VHH-Fc on IgG2 Fc
B7: IL1RL1-189 (antibody, V domains shown)
VH: EVQLLESGGGLVQPGGSLRLSCAASGFTFSSYFMSWVRQAPGKGLEWVSAISREGRATYYADSVKGRFTISRDNSKNTLYLQMNSLRAEDTAVYYCARIRVGPSGGAFDYWGQGTLVTVSS
VL: DIQMTQSPSSLSASVGDRVTITCKASDHIGKFLTWYQQKPGKAPKLLIYGRNKRPSGVPSRFSGSGSGTDFTLTISSLQPEDFATYYCQQSYSTPTFGQGTKVEIK
notes: IgG2
B8: IL1RL1-200 (antibody, V domains shown)
VH: EVQLLESGGGLVQPGGSLRLSCAASGFTFKSYGMHWVRQAPGKGLEWVSLIPHTGNPTYYADSVKGRFTISRDNSKNTLYLQMNSLRAEDTAVYYCARGGPRGNKYYFDYWGQGTLVTVSS
VL: DIQMTQSPSSLSASVGDRVTITCSGDKLGHTYTSWYQQKPGKAPKLLIYRKSNRPSGVPSRFSGSGSGTDFTLTISSLQPEDFATYYCYSRDRSGNHLGMFGQGTKVEIK
notes: IgG2
B9: IL1RL1-230 (antibody, V domains shown)
VH: EVQLLESGGGLVQPGGSLRLSCAASGFTFSGYIMAWVRQAPGKGLEWVSSISSTGFKTYYADSVKGRFTISRDNSKNTLYLQMNSLRAEDTAVYYCAKGNSRYVFDYWGQGTLVTVSS
VL: DIQMTQSPSSLSASVGDRVTITCKASDHIGKFLTWYQQKPGKAPKLLIYGRNKRPSGVPSRFSGSGSGTDFTLTISSLQPEDFATYYCNSRDTSGLHYVFGQGTKVEIK
notes: IgG2
B10: IL1RL1-55 (Fc fusion, not shown: a dimerising Fc or GST)
VHH: EVQLVESGGGLVQPGGSLRLSCAASGEIASIIAMGWFRQAPGKERELVAVIIGGGSTNYADSVKGRFTISADNSKNTAYLQMNSLKPEDTAVYYCAAVGGATTVTASEWDWGQGTLVTVSS
notes: VHH-Fc on IgG2 Fc
B11: IL1RL1-80 (Fc fusion, not shown: a dimerising Fc or GST)
VHH: B10 VHH with E27R, I28T, A29F, I31P, L47M, G53D, G54S, G55R, S56T, N58K
notes: VHH-Fc on IgG2 Fc
B12: IL1RL1-31 (Fc fusion, not shown: a dimerising Fc or GST)
VHH: EVQLVESGGGLVQPGGSLRLSCAASGFTFRNFGMGWFRQAPGKEREFVALINVGGVAKYADSVKGRFTISADNSKNTAYLQMNSLKPEDTAVYYCTTDARHWGQGTLVTVSS
notes: VHH-Fc on IgG2 Fc
B13: IL1RL1-76 (Fc fusion, not shown: a dimerising Fc or GST)
VHH: EVQLVESGGGLVQPGGSLRLSCAASGSIFTIYAMGWFRQAPGKEREWVASISTSGSTITPYADSVKGRFTISADNSKNTAYLQMNSLKPEDTAVYYCATTEYSGYDAVNYWGQGTLVTVSS
notes: VHH-Fc on IgG2 Fc
B14: IL1RL1-221 (antibody, V domains shown)
VH: EVQLLESGGGLVQPGGSLRLSCAASGFTFPKYDMMWVRQAPGKGLEWVSSIRGSSSSTYYADSVKGRFTISRDNSKNTLYLQMNSLRAEDTAVYYCARAGRILFDYWGQGTLVTVSS
VL: DIQMTQSPSSLSASVGDRVTITCRASQTIERRLNWYQQKPGKAPKLLIYGRNKRPSGVPSRFSGSGSGTDFTLTISSLQPEDFATYYCGQSYRYPLTFGQGTKVEIK
notes: IgG2
B15: IL1RL1-33 (Fc fusion, not shown: a dimerising Fc or GST)
VHH: EVQLVESGGGLVQPGGSLRLSCAASGGTFSTHWMGWFRQAPGKEREEVAAISWIIGSTYYADSVKGRFTISADNSKNTAYLQMNSLKPEDTAVYYCATSGSGSPNWGQGTLVTVSS
B16: IL1RL1-214 (antibody, V domains shown)
VH: EVQLLESGGGLVQPGGSLRLSCAASGFTFNAYPMTWVRQAPGKGLEWVSAISGRGDNTYYADSVKGRFTISRDNSKNTLYLQMNSLRAEDTAVYYCARPPKRGPRFDYWGQGTLVTVSS
VL: DIQMTQSPSSLSASVGDRVTITCKASENVDTYVSWYQQKPGKAPKLLIYGRNKRPSGVPSRFSGSGSGTDFTLTISSLQPEDFATYYCQQGHTLPWTFGQGTKVEIK
notes: IgG2
B17: IL1RL1-79 (Fc fusion, not shown: a dimerising Fc or GST)
VHH: EVQLVESGGGLVQPGGSLRLSCAASGRTFSMGWFRQAPGKEREAVASISWSGGSAFYADSVKGRFTISADNSKNTAYLQMNSLKPEDTAVYYCAAIGGGAVWGQGTLVTVSS
notes: VHH-Fc on IgG2 Fc
B18: IL1RL1-256 (antibody, V domains shown)
VH: EVQLLESGGGLVQPGGSLRLSCAASGFTFDRYRMTWVRQAPGKGLEWVSSIGANGAPTYYADSVKGRFTISRDNSKNTLYLQMNSLRAEDTAVYYCARGRLFDYWGQGTLVTVSS
VL: DIQMTQSPSSLSASVGDRVTITCQGASLRNYYASWYQQKPGKAPKLLIYGNNNRPSGVPSRFSGSGSGTDFTLTISSLQPEDFATYYCASRSSKGNPHVLFGQGTKVEIK
notes: IgG2
B19: IL1RL1-30 (Fc fusion, not shown: a dimerising Fc or GST)
VHH: EVQLVESGGGLVQPGGSLRLSCAASGDISSIVAMGWFRQAPGKEREWVASISTSGSTITPYADSVKGRFTISADNSKNTAYLQMNSLKPEDTAVYYCAAGAVRYGVSTSPMNYNWGQGTLVTVSS
notes: VHH-Fc on IgG2 Fc
B20: IL1RL1-28 (Fc fusion, not shown: a dimerising Fc or GST)
VHH: EVQLVESGGGLVQPGGSLRLSCAASGRTISRYTMGWFRQAPGKEREFVAGIWSGGYTHYADSVKGRFTISADNSKNTAYLQMNSLKPEDTAVYYCAAVSSNTEIFDWGQGTLVTVSS
notes: VHH-Fc on IgG2 Fc
B21: IL1RL1-35 (Fc fusion, not shown: a dimerising Fc or GST)
VHH: B20 VHH with R27L, R31S, Y32L
notes: VHH-Fc on IgG2 Fc
B22: IL1RL1-29 (Fc fusion, not shown: a dimerising Fc or GST)
VHH: EVQLVESGGGLVQPGGSLRLSCAASGGFSVYAMGWFRQAPGKEREWVSSTSTGGGGTYYADSVKGRFTISADNSKNTAYLQMNSLKPEDTAVYYCAANVGVTGSYEWGQGTLVTVSS
notes: VHH-Fc on IgG2 Fc
B23: IL1RL1-245 (antibody, V domains shown)
VH: EVQLLESGGGLVQPGGSLRLSCAASGFTLSSYAMSWVRQAPGKGLEWVSGITRSGSTNYRDSVKGRFTISRDNSKNTLYLQMNSLRAEDTAVYYCAKFPFTHGKFDYWGQGTLVTVSS
VL: DIQMTQSPSSLSASVGDRVTITCRASQGVRTSLAWYQQKPGKAPKLLIYRASTLASGVPSRFSGSGSGTDFTLTISSLQPEDFATYYCASRSSKGNPHVLFGQGTKVEIK
notes: IgG2
B24: IL1RL1-252 (antibody, V domains shown)
VH: EVQLLESGGGLVQPGGSLRLSCAASGFTFSRYHIEWVRQAPGKGLEWVSAISGRGDNTYYADSVKGRFTISRDNSKNTLYLQMNSLRAEDTAVYYCARHKGLQPLDYWGQGTLVTVSS
VL: DIQMTQSPSSLSASVGDRVTITCRASQDVSSGVAWYQQKPGKAPKLLIYPKHNRPPGVPSRFSGSGSGTDFTLTISSLQPEDFATYYCSARSVRGNPHVLFGQGTKVEIK
notes: IgG2

Target: T1, IL1RL1 over-expressed on Expi293 cells
Test: flow cytometry, 100 nM antibody, over-expressing Expi293 / parent cells
Description: All incubations and washes were in buffer containing PBS+1% BSA. MFI Ratio is defined by the mean fluorescence intensity (MFI) of the cytokine over-expressing Expi293 cell over the Expi293 parent cell. […] EC50 was calculated in GraphPad Prism.

Row | Binder | 100 nM FACS (MFI Ratio) [MFI ratio]
1 | B1 | 0.55
2 | B2 | 87.7
3 | B3 | 1.62
4 | B4 | 4.47
5 | B5 | 1.93
6 | B6 | 432
7 | B7 | 7.46
8 | B8 | 1
9 | B9 | 1.43
10 | B10 | 1.6
11 | B11 | 1.49
12 | B12 | 311
13 | B13 | 385
14 | B14 | 0.51
15 | B15 | 504
16 | B16 | 1.34
17 | B17 | 1
18 | B18 | 0.6
19 | B19 | 515
20 | B20 | 473
21 | B21 | 514
22 | B22 | 431
23 | B23 | 1.28
24 | B24 | 0.58
